Assay: soluble on expression in E. coli; label from the status in PepcDB or PDB records

| Sequence | soluble on expression in E. coli |
| --- | --- |
| MGSDKIHHHHHHMRHLKAFYVFHVTAESSNYSKAAEKLHITHGAVSKQIKLLESHLSQMLFYKQGRGMCLTQEGELLKQYTDIAFNALDNGIKKLTRESNKHLEVSCEPTLTMRWLMPRLASFFRLTGIDVRLSTAGGPVDLNETGLSLAIRRDDFDISPEYTAHNLVNEWVGPVFSPEYWRKSQNNLGDIVLLHSETRPSAWSDWSSRSKHTFYTNKSKSFEHFYFCLQAAVDGLGAAIGSYPLIVDDLKSGRLVAPFGFTQSGHKYVLLSHTERLGSNELEFLTWLEKTMSLCQPETP | not soluble |
| MAHHHHHHMQFHQFLCRFRNQVLLKGAFWSCPHQFRLGLHDRWKVNLVKVHIGVLGFFFKTHGESVVSGAKGDNLHGCRNGGVSALKVTNAFLNKIRNDQHTQIVPTIYQRGTPRQLSHEMSKIRILKVPMEHRRAFAHDTVIVSTLHRSVKTDVRGDTHRGTVLLHWKMHCLR | not soluble |
| MDVEVKNKANRRHVGHNLQKIRVYFGMKQEALAADLGVNQQVISKIEKQEEIEEGLLNQIASVLGISAEVIKDFDVEKAIYNINNIRDNTFEQGATSIAQQFNPLDKIVELYERLLQSEREKIELLKKR | not soluble |
| ETGGERQLSPEKSEIWGPGLKADVVLPARYFYIQAVDTSGNKFTSSPGEKVFQVKVSAPEEQFTRVGVQVLDRKDGSFIVRYRMYASYKNLKVEIKFQGQHVAKSPYILKG | soluble |
| GSSGSSGDKKAYFYHSSFQILNVEYTEALNSPATHEYRTLSERIEAMITDEFRGSSLKSEFIRTHVVKLRKEGTGVVADVVMKFRSSKRNNRKVMKTRIQSVLRRLSSSGNLEIAPSNEITSLTDQDT | soluble |
| MAHHHHHHMKLEEVKDIQKIERIGAHSHIRGLGLNDCLDARYCSEGMIGQMSARKAAGIVLRMIKEGRISGRAILLAGQPGTGKTAIAMGIAKALGEDTPFTHISGSEVYSLEMSKTEALTQAFRRSIGVRVKEESEVIEGEVVEIEIEKFNERDINNKNKKLGKMILKTTEMETLYDLGSKMIEALQKENITAGDVICIDKGTGKITKIGKSFARSKDYDAMDPNTLFVQCPEGELQKRKEVVHTVTLHDIDAINSRTQGFLALFSGDTGEIKNEIREHIDMKINEWQEDEKAEIVPGVLFIDEVHMLDIECFSYLNRALESEQSPIVIMATNRGITHIRGTDYKAPHGIPLDLLDRTLIIPTYPYKHQDILKILEQRAEEEDVDIDEYAKELLCKIASESSLRYALHLITLANLVSKKRKATEVTVQDVRRVYNLFIDVKRSTQYLIEYQNEFMFSELPKEELSVKEEDSSEEKRELHEKNSENSSTSN | soluble |
| MSLGTLWWNGTFFTMVHEGDQVEAVFTEDGKIVAIGTAEELRQRYSTRINQEMNCDGAYVYPGFVDSHLHMIGHGEKLLRLDLSTVMNAEDMREKLMERVALTEEGDWVTAEGWNENNFPDQKIFHRNELDEIAPNHPMILTRVCRHAILVNSKALQLAGISKDTTDPPGGRIVRDELGEPTGYLLDTAQELVKRVAPSVSAAYLERALAAAVDDMVAKGLVGGHTEDLGYYLGFNQTFATFQRVIDGNTRRFRAHLLVHHEVIDDMIKAGYCKGPVGEWLEFGAMKIFADGAFGGRTALLSEPYCDAPTTSGVAIHTQEQLTNLIKKARQYKLPVAIHTIGDEALRMAITSIEAHPVTEGRDRLIHTQVTPPSLVERMKKLKVILDIQPAFVPADFPWVEERLGNERLSYSFAWKTLLRSGMALAGGSDAPIEEVDPLYGIYAAVARKKPTDQHEGYLPEEKLTRYEALQLYTTGSAYAIEREHERGNIRPGYVADFTMLNRNLFTCREEELLTTRVEKTVIGEAIVFQAKGIITITTDPNSSSVDKLAAALEHHHHHH | soluble |
| MIFLSFKKSFKNITIEGKFTFEKGFNVILGPSGAGKSTVIKVMCGIEKPDEGFMKCCDEVFFDTKKGVFLPPQKRRLGVVFQSHNLFPHMTVRENIEFALKKAKEPQFTVEELLEKFNLKGHENKYPGELSGGQRQRVAVIRAIVFNPRAVLMDEPFSSLDFKTKLSIMEFIKSVHIEKPVIIVTHDLFEALYLGQKFFLMDNGKKVKEGGKEVLKEYVDLEKIKKFLS | soluble |
| MERLKIQVLVDNNTYIDRYFVGEPAVSYYIEIDGNRILFDSGYSDVFISNAEKLNIDLGNLTHVVFSHGHNDHTRGIQFLENRYDLSTVELVSHPNCFIPRKHGEKSIGAPFSAEEIKNIFMYNPKDKPFNLSKNCVFLGEIPSINDFEKRAKIGKCKIGDLWEDDYVLDDSAIVCKTDKGIFIVTGCSHSGICNIVEYAKKVCGDDRVIGILGGFHLFELNNRLDSTIQYLDKEEIRMLYPCHCVSFKVKAKMNEILNINEVGVGLTISILEHHHHHH | soluble |
| MREVISIHVGQAGVQIGNACWELYCLEHGIQPDGTMPSDQQADGESFTTFFSDTGNGRYVPRSIFVDLEPTVVDEIRTGTYKKLFHPEQMITGKEDAANNYARGHYTVGKELIDTVLDRIRRLADNCSGLQGFFVFHSFGGGTGSGFTSLLMERLSVDYGKKSKLEFSIYPAPQVSTAVVEPYNSILTTHTTLEHSDCAFMVDNEAIYDICRRNLSVDRPSYTNLNRIISQVVSSITASLRFDGALNVDLNEFQTNLVPYPRIHFPLAAYTPLISADKAYHEALSVNDITNSCFEPANQMVKCDPRHGKYMAVCLLYRGDVVPKDVNTAIAAIKTKRTIQFVDWCPTGFKVGINYQPPTVVPGGDLAKVPRAVCMLSNTTAIAEAWSRLDYKFDLMYAKRAFVHWYVGEGMEEGEFTEAREDLAALEKDYEEVGADSNEGGNEEEGEEY | not soluble |
| MGLEKVVLTGLGAGLIAVAARGQNPLATALKIEQNDEGETVVRDAVTIGKPAEQLYAVWRDLPGLPLLMTHLRSVEVLDDKRSRWTVEAPAPLGTVSWEAELTADEPGKRIAWRSLPGARIENSGEVLFRPAPGARGTEVVVRLTYRPPGGSAGAVIARMFNQEPSQQLRDDLMRFKREQELGLEHHHHHH | soluble |
| MSLTDRTIGEAAELLGVTTRTLRHWDSIGLLQPSWRTTTDYRLYTEDDVERALQILIYRAAGIGLKDIAEVLDQPDSANQHLRRQRELLVEQIGQLHRMVRAVDEILGKDAISVKEKIEIFGEDLPKYQEEAFQRWGDTPEWKESQKIQEKMTKEDFQRAKDEHEGFVEKLIDASLRGIAPGSAEGNELALAHRASIGQWYTVSANKQVILARMYVEDERFNETYKGHASYLLTLIEALAQVEGVDLENEGHHHHHH | not soluble |
| EAEEDGDLQCLCVKTTSQVRPRHITSLEVIKAGPHCPTAQLIATLKNGRKICLDLQAPLYKKIIKKLLES | soluble |
| MGSDKIHHHHHHMNLRVLGKILLDEMRNGDVAIVEYSSSSPIHRLVWGEIILKYVDRYEFVIDDFFGIGDVMFRTYLRRISSPDEYTKIMEKTKNIKAIKIGPGKISYASKVEELPLTYNLSEFIKLYYPIIRDILAKSSKRVFFITLGLSQYLYLGEAKALETILLSRSVLPIEDWTSIYFLNTDVAPEKAVAALEEISPIVIQVRNNEILVKKI | not soluble |
| MEEMRVIGLLSSGIDSPVAIHLMASRGAEVYPLHFRQDEIKEKKARKLVSRLKEIHGEKVKDLKVVDALKVQGPVFEKLRELKREKWICIFCKYTMYMVAEKYAREVGAEAIVTGDSLGQVASQTLDNLMVISTATNLPIIRPLIALDKEEIVRIAKEIGTFEISIENEPPCPFLPKFPVVRAGFSQFRKILEEIREVLPK | soluble |
| MGSDKIHHHHHHMTLDAVLTQIDTDLDAAMARLMALLRVPSISTDPAFDADVARAAQILCDDLTGLGFDASVRETTGHPMVVAHGDDTGPHVLFYGHYDVQPVDPLDLWDRDPFDPIIEEQNGKKVIRARGASDDKGQLMTFIEACRAWKAVTGKLPAKVTIFLEGEEESGSPSLVPFMEAHKDELTAEVALICDTGLFAEGVPAIVTQLRGMLQEEITVTGPRIDLHSGMFGGIAMNPIRVLSGVLAGLHDANGSVTVPGFYEGVPDISDDLRASWDALGFVPEAFLGPVGLSHPAGEAGRSGLEMIWSRPTAEVNGVWGGYTGAGFKTVLPSQAHAKISFRLVAGQDPDRLHENFVDWVTAQMPPDCTVSITQIAGSRASQMDTSHPIFETTRQALSDEWPNEAAYIGCGGSIPVAGHFKTILGMDSVLAGFGKDDDAIHSPNEKYDVESFHRGIRSWARVLGGLSEV | not soluble |

From the DeepSol protein solubility set
